For one substance, cell proliferation of Clone G8 cultured with different constant amounts of HEL over a 5-day period (times the rate) and lowest HEL concentration giving accelerated cell growth results are on record in patent US20030095962A1, “Chimeric cell-surface receptors that undergo antigen-induced association” (priority 1997, published 2003).

For this experiment, the target named is hen egg lysozyme (hen) (UniProt P00698). Put plainly: cell-based or functional assay.
Chain of hen egg lysozyme (hen) (P00698 19-147): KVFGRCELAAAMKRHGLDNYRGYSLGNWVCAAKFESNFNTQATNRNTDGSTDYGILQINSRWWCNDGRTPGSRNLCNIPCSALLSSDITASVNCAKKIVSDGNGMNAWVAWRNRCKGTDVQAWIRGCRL

Chain of pair of chimeric receptor polypeptides: HyHEL-10 VH fused to mouse erythropoietin receptor (pME-VHER) and HyHEL-10 VL fused to mouse erythropoietin receptor (pME-VLER), expressed on Ba/F3 cells (from (P14753 146-507, change not shown): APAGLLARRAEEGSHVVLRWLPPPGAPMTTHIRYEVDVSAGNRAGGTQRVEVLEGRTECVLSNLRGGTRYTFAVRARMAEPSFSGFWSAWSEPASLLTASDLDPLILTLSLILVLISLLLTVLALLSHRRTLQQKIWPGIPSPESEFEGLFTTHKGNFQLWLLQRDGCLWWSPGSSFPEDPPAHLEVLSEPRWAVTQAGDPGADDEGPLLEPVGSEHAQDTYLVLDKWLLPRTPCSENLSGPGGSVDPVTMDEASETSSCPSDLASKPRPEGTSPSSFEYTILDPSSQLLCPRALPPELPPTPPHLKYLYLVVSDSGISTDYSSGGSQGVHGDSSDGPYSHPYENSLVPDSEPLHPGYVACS
Chain of pair of chimeric receptor polypeptides: HyHEL-10 VH fused to mouse erythropoietin receptor (pME-VHER) and HyHEL-10 VL fused to mouse erythropoietin receptor (pME-VLER), expressed on Ba/F3 cells (from (P14753 146-507, change not shown): as above

Regarding “pair of chimeric receptor polypeptides: HyHEL-10 VH fused to mouse erythropoietin receptor (pME-VHER) and HyHEL-10 VL fused to mouse erythropoietin receptor (pME-VLER), expressed on Ba/F3 cells (from UniProt P14753 146-507; P14753 146-507)”, the cell proliferation of Clone G8 cultured with different constant amounts of HEL over a 5-day period (times the rate) was above 5 and the lowest HEL concentration giving accelerated cell growth is 5 ng/mL.
